Test results published in IntAct's records for PubMed 29281743.

B1: Protein deacetylase HDAC6 (Homo sapiens), Q9UBN7 (parent)
chain: MTSTGQDSTTTRQRRSRQNPQSPPQDSSVTSKRNIKKGAVPRSIPNLAEVKKKGKMKKLGQAMEEDLIVGLQGMDLNLEAEALAGTGLVLDEQLNEFHCLWDDSFPEGPERLHAIKEQLIQEGLLDRCVSFQARFAEKEELMLVHSLEYIDLMETTQYMNEGELRVLADTYDSVYLHPNSYSCACLASGSVLRLVDAVLGAEIRNGMAIIRPPGHHAQHSLMDGYCMFNHVAVAARYAQQKHRIRRVLIVDWDVHHGQGTQFTFDQDPSVLYFSIHRYEQGRFWPHLKASNWSTTGFGQGQGYTINVPWNQVGMRDADYIAAFLHVLLPVALEFQPQLVLVAAGFDALQGDPKGEMAATPAGFAQLTHLLMGLAGGKLILSLEGGYNLRALAEGVSASLHTLLGDPCPMLESPGAPCRSAQASVSCALEALEPFWEVLVRSTETVERDNMEEDNVEESEEEGPWEPPVLPILTWPVLQSRTGLVYDQNMMNHCNLWDSHHPEVPQRILRIMCRLEELGLAGRCLTLTPRPATEAELLTCHSAEYVGHLRATEKMKTRELHRESSNFDSIYICPSTFACAQLATGAACRLVEAVLSGEVLNGAAVVRPPGHHAEQDAACGFCFFNSVAVAARHAQTISGHALRILIVDWDVHHGNGTQHMFEDDPSVLYVSLHRYDHGTFFPMGDEGASSQIGRAAGTGFTVNVAWNGPRMGDADYLAAWHRLVLPIAYEFNPELVLVSAGFDAARGDPLGGCQVSPEGYAHLTHLLMGLASGRIILILEGGYNLTSISESMAACTRSLLGDPPPLLTLPRPPLSGALASITETIQVHRRYWRSLRVMKVEDREGPSSSKLVTKKAPQPAKPRLAERMTTREKKVLEAGMGKVTSASFGEESTPGQTNSETAVVALTQDQPSEAATGGATLAQTISEAAIGGAMLGQTTSEEAVGGATPDQTTSEETVGGAILDQTTSEDAVGGATLGQTTSEEAVGGATLAQTTSEAAMEGATLDQTTSEEAPGGTELIQTPLASSTDHQTPPTSPVQGTTPQISPSTLIGSLRTLELGSESQGASESQAPGEENLLGEAAGGQDMADSMLMQGSRGLTDQAIFYAVTPLPWCPHLVAVCPIPAAGLDVTQPCGDCGTIQENWVCLSCYQVYCGRYINGHMLQHHGNSGHPLVLSYIDLSAWCYYCQAYVHHQALLDVKNIAHQNKFGEDMPHPH

Variants of: B1
Conditions: with myd88_human MYD88, Q99836
Sequence of myd88_human MYD88, Q99836 (Q99836 whole entry): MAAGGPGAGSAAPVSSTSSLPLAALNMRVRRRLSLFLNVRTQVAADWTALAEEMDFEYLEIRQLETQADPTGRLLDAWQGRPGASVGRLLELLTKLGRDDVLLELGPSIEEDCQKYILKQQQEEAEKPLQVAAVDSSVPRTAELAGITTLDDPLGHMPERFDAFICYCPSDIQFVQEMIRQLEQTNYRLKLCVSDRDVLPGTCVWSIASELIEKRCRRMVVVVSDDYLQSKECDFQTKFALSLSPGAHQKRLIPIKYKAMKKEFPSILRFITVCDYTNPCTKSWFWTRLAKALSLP

Row | Variant | effect of a mutation on the interaction
1 | H216A;H611A | with no effect
